Reference: patent publication US20210253718A1 (MODMAB THERAPEUTICS, published 2021)

What was measured:
[1] = molecular target: T1, FZD2 cysteine-rich domain (CRD), MYC-tagged and GPI-anchored on CHO cells (human, UniProt Q14332 35-161); assay: flow cytometry, CHO-CRD cells;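 also: flow cytometry of Fab binding to CHO cells overexpressing a Frizzled CRD, with binding defined as median fluorescence over twice that of CHO cells lacking any Frizzled CRD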
Experimental: (§1) Binding was measured via flow cytometry analysis of CHO cells overexpressing CRD of FZD1, FZD2, FZD3, FZD4, FZD5, FZD6, FZD7, FZD8, FZD9 or FZD10. Median fluorescence values are shown.

[2] = molecular target: T2, FZD4 cysteine-rich domain (CRD), MYC-tagged and GPI-anchored on CHO cells (human, UniProt Q9ULV1 42-167, GPI anchor); assay: flow cytometry, CHO-CRD cells;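 also: flow cytometry of Fab binding to CHO cells overexpressing a Frizzled CRD, with binding defined as median fluorescence over twice that of CHO cells lacking any Frizzled CRD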
T2 construct: also called FZD4 CRD; CHO-myc-FZDGPI; not shown: MYC tag and GPI anchor signal
T2 sequence: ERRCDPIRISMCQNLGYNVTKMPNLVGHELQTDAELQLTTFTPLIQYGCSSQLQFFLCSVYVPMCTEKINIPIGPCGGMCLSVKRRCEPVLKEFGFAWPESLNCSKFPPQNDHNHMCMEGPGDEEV

[3] = molecular target: T3, FZD10 cysteine-rich domain (CRD), MYC-tagged and GPI-anchored on CHO cells (human, UniProt Q9ULW2 30-156, GPI anchor); assay: flow cytometry, CHO-CRD cells;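 also: flow cytometry of Fab binding to CHO cells overexpressing a Frizzled CRD, with binding defined as median fluorescence over twice that of CHO cells lacking any Frizzled CRD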
T3 construct: also called FZD10 CRD; CHO-myc-FZDGPI; not shown: MYC tag and GPI anchor signal
T3 sequence: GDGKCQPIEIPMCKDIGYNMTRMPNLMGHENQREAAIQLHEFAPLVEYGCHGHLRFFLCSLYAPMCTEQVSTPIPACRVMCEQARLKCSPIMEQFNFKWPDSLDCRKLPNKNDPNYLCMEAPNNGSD

[4] = molecular target: T4, FZD6 cysteine-rich domain (CRD), MYC-tagged and GPI-anchored on CHO cells (human, UniProt O60353 20-146, GPI anchor); assay: flow cytometry, CHO-CRD cells;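 also: flow cytometry of Fab binding to CHO cells overexpressing a Frizzled CRD, with binding defined as median fluorescence over twice that of CHO cells lacking any Frizzled CRD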
T4 construct: also called FZD6 CRD; CHO-myc-FZDGPI; not shown: MYC tag and GPI anchor signal
T4 sequence: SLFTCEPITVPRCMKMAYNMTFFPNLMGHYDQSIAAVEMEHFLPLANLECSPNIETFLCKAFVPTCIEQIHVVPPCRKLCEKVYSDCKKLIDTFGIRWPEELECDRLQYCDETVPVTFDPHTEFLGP

[5] = molecular target: T5, FZD3 cysteine-rich domain (CRD), MYC-tagged and GPI-anchored on CHO cells (human, UniProt Q9NPG1 24-150, GPI anchor); assay: flow cytometry, CHO-CRD cells
T5 construct: domain: cysteine-rich domain (CRD); also called FZD3 CRD; CHO-myc-FZDGPI; not shown: MYC tag and GPI anchor signal
T5 sequence (looked up): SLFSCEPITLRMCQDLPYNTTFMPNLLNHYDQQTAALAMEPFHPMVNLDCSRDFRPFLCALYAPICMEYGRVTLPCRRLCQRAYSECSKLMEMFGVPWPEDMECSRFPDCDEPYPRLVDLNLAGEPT

[6] = molecular target: T6, FZD9 cysteine-rich domain (CRD), MYC-tagged and GPI-anchored on CHO cells (human, UniProt O00144 35-161, GPI anchor); assay: flow cytometry, CHO-CRD cells
T6 construct: also called FZD9 CRD; CHO-myc-FZDGPI; not shown: MYC tag and GPI anchor signal
T6 sequence: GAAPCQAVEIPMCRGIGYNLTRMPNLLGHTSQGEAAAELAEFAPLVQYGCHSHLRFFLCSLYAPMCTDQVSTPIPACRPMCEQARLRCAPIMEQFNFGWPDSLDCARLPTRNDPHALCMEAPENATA

[7] = molecular target: T7, FZD1 cysteine-rich domain (CRD), MYC-tagged and GPI-anchored on CHO cells (human); assay: flow cytometry, CHO-CRD cells
Experimental: as §1

[8] = molecular target: T8, FZD5 cysteine-rich domain (CRD), MYC-tagged and GPI-anchored on CHO cells (human, UniProt Q13467 29-156, GPI anchor); assay: flow cytometry, CHO-CRD cells
T8 construct: also called FZD5 CRD; CHO-myc-FZDGPI; not shown: MYC tag and GPI anchor signal
T8 sequence: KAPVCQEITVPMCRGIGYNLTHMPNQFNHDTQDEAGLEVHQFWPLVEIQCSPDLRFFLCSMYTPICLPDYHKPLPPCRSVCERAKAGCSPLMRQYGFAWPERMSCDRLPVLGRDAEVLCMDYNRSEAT

[9] = molecular target: T9, FZD8 cysteine-rich domain (CRD), MYC-tagged and GPI-anchored on CHO cells (human, UniProt Q498S8 31-155 (rat entry), GPI anchor); assay: flow cytometry, CHO-CRD cells
T9 construct: also called FZD8 CRD; CHO-myc-FZDGPI; not shown: MYC tag and GPI anchor signal
T9 sequence: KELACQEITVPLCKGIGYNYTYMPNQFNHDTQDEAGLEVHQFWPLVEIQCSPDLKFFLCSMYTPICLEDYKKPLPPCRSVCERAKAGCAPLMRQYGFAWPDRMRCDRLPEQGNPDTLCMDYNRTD

[10] = molecular target: T10, FZD7 cysteine-rich domain (CRD), MYC-tagged and GPI-anchored on CHO cells (human, UniProt O75084 45-169); assay: flow cytometry, CHO-CRD cells
Experimental: as §1

[11] = molecular target: T1, FZD2 cysteine-rich domain (CRD), …; assay: flow cytometry on CHO-GPI cells over-expressing the Frizzled CRD;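 also: binding of recombinant anti-Frizzled Fabs to the cells, read as fold mean fluorescence intensity above secondary-antibody-only background and normalized to control CHO-GPI cells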
Text: (§2) Specificity profiling of the Frizzled profiler Fabs by flow cytometry in CHO-GPI cells over-expressing CRDs of FZD1, FZD2, FZD3, FZD4, FZD5, FZD6, FZD7, FZD8, FZD9 or FZD10. Numerical values indicate a fold-increase in mean fluorescence intensity of the reacting Fab over the background (secondary antibody alone) normalized to the control (C, CHO-GPI).
(§3) To characterize the binding specificity of these Fabs on cells, a panel of 10 CHO cell lines was generated, each expressing the CRD domain of a different myc-tagged Frizzled family member anchored at the plasma membrane through a GPI anchor (CHO-myc-FZDGPI).

[12] = molecular target: T2, FZD4 cysteine-rich domain (CRD), …; assay: as above
Text: as §2, §3

[13] = molecular target: T3, FZD10 cysteine-rich domain (CRD), …; assay: as above
Text: as §2, §3

[14] = molecular target: T4, FZD6 cysteine-rich domain (CRD), …; assay: as above
Text: as §2, §3

[15] = molecular target: T5, FZD3 cysteine-rich domain (CRD), …; assay: as above
Text: as §2, §3

[16] = molecular target: T6, FZD9 cysteine-rich domain (CRD), …; assay: as above
Text: as §2, §3

[17] = molecular target: T7, FZD1 cysteine-rich domain (CRD), …; assay: as above
Text: as §2, §3

[18] = molecular target: T8, FZD5 cysteine-rich domain (CRD), …; assay: as above
Text: as §2, §3

[19] = molecular target: T9, FZD8 cysteine-rich domain (CRD), …; assay: as above
Text: as §2, §3

[20] = molecular target: T10, FZD7 cysteine-rich domain (CRD), …; assay: as above
Text: as §2, §3

[21] = molecular target: T2, FZD4 cysteine-rich domain (CRD), …; assay: immunofluorescence, CHO-CRD cells
[22] = molecular target: T3, FZD10 cysteine-rich domain (CRD), …; assay: immunofluorescence, CHO-CRD cells
[23] = molecular target: T4, FZD6 cysteine-rich domain (CRD), …; assay: immunofluorescence, CHO-CRD cells
[24] = molecular target: T5, FZD3 cysteine-rich domain (CRD), …; assay: immunofluorescence, CHO-CRD cells
[25] = molecular target: T6, FZD9 cysteine-rich domain (CRD), …; assay: immunofluorescence, CHO-CRD cells
[26] = molecular target: T9, FZD8 cysteine-rich domain (CRD), …; assay: immunofluorescence, CHO-CRD cells

B1: Fab-2921 (Fab, V domains shown)
VH: EVQLVESGGGLVQPGGSLRLSCAASGFNISYYYIHWVRQAPGKGLEWVASIYPSSGSTSYADSVKGRFTISADTSKNTAYLQMNSLRAEDTAVYYCARGAMDYWGQGTLVTVSS
VL: DIQMTQSPSSLSASVGDRVTITCRASQSVSSAVAWYQQKPGKAPKLLIYSASSLYSGVPSRFSGSRSGTDFTLTISSLQPEDFATYYCQQWYAGSLITFGQGTKVEIK
notes: Fab
Question: What does the source list for B1?
Answer: median fluorescence [1]: 4.37; median fluorescence [2]: 4.1; median fluorescence [3]: 2.48; median fluorescence [4]: 2.67; median fluorescence [5]: 3.59; median fluorescence [6]: 2.94; median fluorescence [7]: 4.53; median fluorescence [8]: 29.4; median fluorescence [9]: 6.98; median fluorescence [10]: 4.37; binding result [11]: no binding (tested: 200 nM); binding result [12]: no binding (tested: 200 nM); binding result [13]: no binding (tested: 200 nM); binding result [14]: no binding (tested: 200 nM); binding result [15]: no binding (tested: 200 nM); binding result [16]: no binding (tested: 200 nM); binding result [17]: no binding (tested: 200 nM); fold-increase in mean fluorescence intensity over background (secondary antibody alone), normalized to control CHO-GPI [18]: 14 fold; fold-increase in mean fluorescence intensity over background (secondary antibody alone), normalized to control CHO-GPI [19]: 6.8 fold; binding result [20]: no binding (tested: 200 nM)

B2: Fab-2908 (Fab, V domains shown)
VH: EVQLVESGGGLVQPGGSLRLSCAASGFNFSSSSIHWVRQAPGKGLEWVAYIYPSYSYTYYADSVKGRFTISADTSKNTAYLQMNSLRAEDTAVYYCARAYYGHFHAMDYWGQGTLVTVSS
VL: DIQMTQSPSSLSASVGDRVTITCRASQSVSSAVAWYQQKPGKAPKLLIYSASSLYSGVPSRFSGSRSGTDFTLTISSLQPEDFATYYCQQSSYSLITFGQGTKVEIK
notes: Fab; also called Fv-2908
Question: For B2, which median fluorescence [2] is on record?
Answer: Its median fluorescence is 4.57.

Question: And the median fluorescence [3]?
Answer: The median fluorescence was 3.08.

Question: And the median fluorescence [4]?
Answer: The median fluorescence was 2.89.

Question: What about the median fluorescence [5] of the same binder?
Answer: The median fluorescence was 3.22.

Question: What about the median fluorescence [6] of the same binder?
Answer: Its median fluorescence is 3.13.

Question: And the median fluorescence [8]?
Answer: Its median fluorescence is 25.5.

Question: And the median fluorescence [9]?
Answer: The median fluorescence was 5.52.

Question: Does B2 bind [21]?
Answer: Result: no binding

Question: Does B2 bind [22]?
Answer: Result: no binding

Question: Does B2 bind [23]?
Answer: Result: no binding

Question: Does B2 bind [24]?
Answer: Result: no binding

Question: Does B2 bind [25]?
Answer: Result: no binding

Question: Does B2 bind [26]?
Answer: Result: no binding

B3: Fab-2911 (Fab, V domains shown)
VH: EVQLVESGGGLVQPGGSLRLSCAASGFNIYYSSMHWVRQAPGKGLEWVAYIYPYSGYTSYADSVKGRFTISADTSKNTAYLQMNSLRAEDTAVYYCARYFWWYGFDYWGQGTLVTVSS
VL: DIQMTQSPSSLSASVGDRVTITCRASQSVSSAVAWYQQKPGKAPKLLIYSASSLYSGVPSRFSGSRSGTDFTLTISSLQPEDFATYYCQQGPWYPFTFGQGTKVEIK
notes: Fab; also called Fv-2911
Question: How did the median fluorescence [1] turn out when B3 was run?
Answer: The median fluorescence was 22.7.

Question: And the median fluorescence [2]?
Answer: The median fluorescence was 6.21.

Question: What about the median fluorescence [3] of the same binder?
Answer: The median fluorescence was 3.96.

Question: And the median fluorescence [4]?
Answer: The median fluorescence was 3.68.

Question: What about the median fluorescence [5] of the same binder?
Answer: The median fluorescence was 4.96.

Question: What about the median fluorescence [6] of the same binder?
Answer: Its median fluorescence is 4.1.

Question: What about the median fluorescence [7] of the same binder?
Answer: Its median fluorescence is 38.2.

Question: And the median fluorescence [8]?
Answer: The median fluorescence was 20.5.

Question: And the median fluorescence [9]?
Answer: The median fluorescence was 7.43.

Question: And the median fluorescence [10]?
Answer: The median fluorescence was 43.3.

Question: Does B3 bind [21]?
Answer: Result: no binding

Question: Does B3 bind [22]?
Answer: Result: no binding

Question: Does B3 bind [23]?
Answer: Result: no binding

Question: Does B3 bind [24]?
Answer: Result: no binding

Question: Does B3 bind [25]?
Answer: Result: no binding

Question: Does B3 bind [26]?
Answer: Result: no binding
